Measured values as given in publication PMC7293203 (Chembiochem : a European journal of chemical biology, 2019).

Key:
[1] = biological target: the molecule itself; assay: native MS
[2] = biological target: tryptophan synthase α-subunit TrpA from Zea mays, wild type (Zea mays); assay: activity titration

Kd [2]: 500 nM
B1: tryptophan synthase β-subunit TrpB1 from Zea mays (enzyme)
chain: GRFGGKYVPETLMHALTELENAFHALATDDEFQKELDGILKDYVGRESPLYFAERLTEHYKRADGTGPLIYLKREDLNHRGAHKINNAVAQALLAKRLGKQRIIAETGAGQHGVATATVCARFGLQCIIYMGAQDMERQALNVFRMKLLGAEVRAVHSGTATLKDATSEAIRDWVTNVETTHYILGSVAGPHPYPMMVREFHKVIGKETRRQAMHKWGGKPDVLVACVGGGSNAMGLFHEFVEDQDVRLIGVEAAGHGVDTDKHAATLTKGQVGVLHGSMSYLLQDDDGQVIEPHSISAGLDYPGVGPEHSFLKDIGRAEYDSVTDQEALDAFKRVSRLEGIIPALETSHALAYLEKLCPTLPDGVRVVLNCSGRGDKDVHTASKYLDV
stoichiometry N [1]: 2
